Reference: patent US20190134153A1, “IMMUNOMODULATORY EFFECT OF INHALED KINASE INHIBITOR PEPTIDES IN LUNG” (MOERAE MATRIX, INC., priority 2017, published 2019)

Tests used:
Assay in all cases: Kinase Profiling Assay
Assay type in all cases: biochemical
Details in all cases: 100 μM
PAK5(h) = PAK5(h) (Homo sapiens, UniProt Q9P286)
Flt1(h) = Flt1(h) (Homo sapiens, UniProt P17948)
Mnk2(h) = Mnk2(h) (Homo sapiens, UniProt Q9HBH9)
EphB2(h) = biological target: T1, EphB2(h) (Homo sapiens, UniProt P29323)
T1 sequence (P29323 19-1055): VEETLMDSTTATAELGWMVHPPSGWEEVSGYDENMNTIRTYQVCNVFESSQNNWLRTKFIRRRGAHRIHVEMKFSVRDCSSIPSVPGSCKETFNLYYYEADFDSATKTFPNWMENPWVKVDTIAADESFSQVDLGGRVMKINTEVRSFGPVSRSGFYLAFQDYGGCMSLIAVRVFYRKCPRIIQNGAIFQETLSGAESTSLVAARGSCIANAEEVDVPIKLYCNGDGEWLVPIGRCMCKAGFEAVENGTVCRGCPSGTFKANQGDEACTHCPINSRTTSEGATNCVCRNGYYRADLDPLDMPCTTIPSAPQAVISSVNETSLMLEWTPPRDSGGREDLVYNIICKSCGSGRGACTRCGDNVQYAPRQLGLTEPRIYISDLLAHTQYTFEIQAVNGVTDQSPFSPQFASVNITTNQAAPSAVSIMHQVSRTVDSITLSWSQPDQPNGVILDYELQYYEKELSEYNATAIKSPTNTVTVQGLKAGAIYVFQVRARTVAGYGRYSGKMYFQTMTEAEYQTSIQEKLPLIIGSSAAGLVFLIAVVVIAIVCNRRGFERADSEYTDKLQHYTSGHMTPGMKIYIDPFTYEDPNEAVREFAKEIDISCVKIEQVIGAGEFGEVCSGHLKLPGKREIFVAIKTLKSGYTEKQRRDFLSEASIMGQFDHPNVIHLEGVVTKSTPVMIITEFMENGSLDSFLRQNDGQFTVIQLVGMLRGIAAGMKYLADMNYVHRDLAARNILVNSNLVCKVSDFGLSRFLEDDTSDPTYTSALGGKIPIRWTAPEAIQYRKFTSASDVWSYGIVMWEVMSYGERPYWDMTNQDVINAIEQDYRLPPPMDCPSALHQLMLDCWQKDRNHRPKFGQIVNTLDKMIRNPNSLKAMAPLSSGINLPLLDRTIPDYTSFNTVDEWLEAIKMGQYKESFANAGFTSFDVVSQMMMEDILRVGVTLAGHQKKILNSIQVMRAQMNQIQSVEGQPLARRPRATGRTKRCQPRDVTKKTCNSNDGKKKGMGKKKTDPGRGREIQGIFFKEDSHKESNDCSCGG

SGK(h) = biological target: T2, SGK(h) (Homo sapiens, UniProt O00141)
T2 sequence (O00141 1-431): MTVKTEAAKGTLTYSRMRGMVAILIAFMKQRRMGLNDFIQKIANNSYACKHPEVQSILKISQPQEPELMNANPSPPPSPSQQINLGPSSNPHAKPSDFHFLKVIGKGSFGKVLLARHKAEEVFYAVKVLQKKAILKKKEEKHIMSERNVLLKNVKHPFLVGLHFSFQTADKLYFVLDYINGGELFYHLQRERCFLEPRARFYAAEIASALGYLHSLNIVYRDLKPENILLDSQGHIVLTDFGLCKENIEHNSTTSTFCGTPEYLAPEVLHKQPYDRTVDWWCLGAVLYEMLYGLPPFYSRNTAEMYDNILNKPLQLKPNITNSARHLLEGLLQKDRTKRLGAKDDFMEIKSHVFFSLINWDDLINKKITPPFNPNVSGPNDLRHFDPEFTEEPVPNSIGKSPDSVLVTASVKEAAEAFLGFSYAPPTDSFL

MEK1(h) = MEK1(h) (Homo sapiens, UniProt Q02750)
Rsk2(h) = Rsk2(h) (Homo sapiens, UniProt P51812)
NEK3(h) = biological target: T3, NEK3(h) (Homo sapiens, UniProt P51956)
T3 sequence (P51956 1-506): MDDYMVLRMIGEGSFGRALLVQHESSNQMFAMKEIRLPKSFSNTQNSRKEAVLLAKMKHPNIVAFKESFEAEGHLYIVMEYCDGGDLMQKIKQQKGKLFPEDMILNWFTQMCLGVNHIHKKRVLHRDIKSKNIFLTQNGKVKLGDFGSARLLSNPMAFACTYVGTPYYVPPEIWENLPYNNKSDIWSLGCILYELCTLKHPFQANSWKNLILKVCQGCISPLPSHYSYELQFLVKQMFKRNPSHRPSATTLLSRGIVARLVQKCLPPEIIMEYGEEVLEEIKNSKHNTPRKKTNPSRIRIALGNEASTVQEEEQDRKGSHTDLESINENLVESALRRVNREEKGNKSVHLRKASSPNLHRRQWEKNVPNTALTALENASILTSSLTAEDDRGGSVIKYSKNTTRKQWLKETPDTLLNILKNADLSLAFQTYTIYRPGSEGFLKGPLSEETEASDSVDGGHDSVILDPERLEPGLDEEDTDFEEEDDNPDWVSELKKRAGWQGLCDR

eEF-2K(h) = eEF-2K(h) (Homo sapiens, UniProt O00418)
PKCα(h) = PKCα(h) (Homo sapiens, UniProt P17252)
EGFR(L858R)(h) = EGFR(L858R)(h) (Homo sapiens, UniProt P00533, L858R)
WNK3(h) = WNK3(h) (Homo sapiens, UniProt Q9BYP7)
TAK1(h) = biological target: T4, TAK1(h) (Homo sapiens, UniProt O43318)
T4 sequence (O43318 1-303 limits assumed): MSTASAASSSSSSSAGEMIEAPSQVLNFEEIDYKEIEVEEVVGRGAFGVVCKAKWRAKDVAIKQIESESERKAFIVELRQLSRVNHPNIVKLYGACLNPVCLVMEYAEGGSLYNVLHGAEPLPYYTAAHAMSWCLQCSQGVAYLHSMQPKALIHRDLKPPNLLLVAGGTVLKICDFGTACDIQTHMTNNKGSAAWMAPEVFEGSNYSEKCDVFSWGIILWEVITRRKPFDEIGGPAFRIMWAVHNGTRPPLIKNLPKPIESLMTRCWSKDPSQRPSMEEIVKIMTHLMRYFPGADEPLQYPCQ

Sequence of Mnk2(h) (Q9HBH9 whole entry): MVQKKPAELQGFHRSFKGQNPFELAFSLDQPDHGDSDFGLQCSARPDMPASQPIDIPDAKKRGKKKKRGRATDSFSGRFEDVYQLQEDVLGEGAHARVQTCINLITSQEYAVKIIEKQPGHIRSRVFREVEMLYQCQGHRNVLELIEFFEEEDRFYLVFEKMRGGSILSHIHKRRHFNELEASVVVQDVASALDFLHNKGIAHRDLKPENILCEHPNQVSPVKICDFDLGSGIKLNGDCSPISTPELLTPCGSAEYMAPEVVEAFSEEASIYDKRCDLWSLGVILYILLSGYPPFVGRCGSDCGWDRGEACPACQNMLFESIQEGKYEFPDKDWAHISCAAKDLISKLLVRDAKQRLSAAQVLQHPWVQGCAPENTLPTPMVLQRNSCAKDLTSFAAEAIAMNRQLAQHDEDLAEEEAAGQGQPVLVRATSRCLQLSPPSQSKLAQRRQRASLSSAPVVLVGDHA
Sequence of Rsk2(h) (P51812 whole entry): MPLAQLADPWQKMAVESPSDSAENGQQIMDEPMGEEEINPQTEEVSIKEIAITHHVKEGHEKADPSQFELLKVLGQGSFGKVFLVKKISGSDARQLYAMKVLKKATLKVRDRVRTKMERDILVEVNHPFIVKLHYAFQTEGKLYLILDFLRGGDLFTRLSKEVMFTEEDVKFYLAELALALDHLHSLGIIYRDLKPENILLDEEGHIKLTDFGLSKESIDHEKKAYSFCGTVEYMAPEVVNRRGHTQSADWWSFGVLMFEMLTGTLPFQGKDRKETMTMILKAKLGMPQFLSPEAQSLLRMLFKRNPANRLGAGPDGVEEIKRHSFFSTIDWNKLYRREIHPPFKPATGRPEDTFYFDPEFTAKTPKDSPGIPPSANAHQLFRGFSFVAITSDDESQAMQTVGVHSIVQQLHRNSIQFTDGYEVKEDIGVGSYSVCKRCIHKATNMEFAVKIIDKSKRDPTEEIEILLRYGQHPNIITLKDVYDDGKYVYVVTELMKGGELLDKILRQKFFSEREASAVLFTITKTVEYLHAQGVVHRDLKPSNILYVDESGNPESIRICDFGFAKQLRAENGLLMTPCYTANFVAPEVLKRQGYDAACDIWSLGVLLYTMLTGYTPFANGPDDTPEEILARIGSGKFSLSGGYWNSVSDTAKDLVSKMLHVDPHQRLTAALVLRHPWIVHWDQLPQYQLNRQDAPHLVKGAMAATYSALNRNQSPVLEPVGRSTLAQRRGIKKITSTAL
Sequence of Flt1(h) (P17948 27-1338): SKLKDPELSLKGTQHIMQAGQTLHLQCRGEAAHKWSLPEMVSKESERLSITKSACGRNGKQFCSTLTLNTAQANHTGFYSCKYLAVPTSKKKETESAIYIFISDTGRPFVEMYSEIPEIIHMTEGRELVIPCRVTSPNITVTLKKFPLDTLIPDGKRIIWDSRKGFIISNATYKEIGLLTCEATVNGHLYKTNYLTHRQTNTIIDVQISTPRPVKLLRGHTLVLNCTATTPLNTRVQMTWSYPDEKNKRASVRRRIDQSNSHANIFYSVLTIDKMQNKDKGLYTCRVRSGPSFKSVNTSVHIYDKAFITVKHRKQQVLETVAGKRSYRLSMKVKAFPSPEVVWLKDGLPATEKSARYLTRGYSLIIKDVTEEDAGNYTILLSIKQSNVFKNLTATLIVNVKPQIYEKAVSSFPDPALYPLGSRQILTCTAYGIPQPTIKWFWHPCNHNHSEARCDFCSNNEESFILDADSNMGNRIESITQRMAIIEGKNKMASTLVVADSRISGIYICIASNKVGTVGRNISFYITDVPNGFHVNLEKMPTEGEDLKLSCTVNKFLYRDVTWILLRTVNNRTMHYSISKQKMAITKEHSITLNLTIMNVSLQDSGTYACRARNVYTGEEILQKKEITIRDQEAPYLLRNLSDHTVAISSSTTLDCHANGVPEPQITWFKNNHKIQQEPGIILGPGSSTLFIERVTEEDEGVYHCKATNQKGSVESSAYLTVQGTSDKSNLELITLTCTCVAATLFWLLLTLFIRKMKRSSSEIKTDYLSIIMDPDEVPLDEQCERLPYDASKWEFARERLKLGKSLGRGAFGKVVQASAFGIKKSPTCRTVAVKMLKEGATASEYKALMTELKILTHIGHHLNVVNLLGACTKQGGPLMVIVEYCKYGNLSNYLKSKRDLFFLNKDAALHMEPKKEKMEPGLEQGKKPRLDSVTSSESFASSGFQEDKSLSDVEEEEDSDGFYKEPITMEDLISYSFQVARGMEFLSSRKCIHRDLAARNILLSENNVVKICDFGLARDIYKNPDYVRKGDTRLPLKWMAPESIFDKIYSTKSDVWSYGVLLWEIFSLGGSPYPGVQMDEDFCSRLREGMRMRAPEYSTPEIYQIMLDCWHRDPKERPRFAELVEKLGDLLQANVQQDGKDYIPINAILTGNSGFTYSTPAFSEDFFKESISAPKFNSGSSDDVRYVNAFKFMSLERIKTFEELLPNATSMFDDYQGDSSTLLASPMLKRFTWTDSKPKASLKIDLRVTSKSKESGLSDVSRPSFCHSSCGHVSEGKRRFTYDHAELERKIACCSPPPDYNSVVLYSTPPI
Sequence of WNK3(h) (Q9BYP7 whole entry): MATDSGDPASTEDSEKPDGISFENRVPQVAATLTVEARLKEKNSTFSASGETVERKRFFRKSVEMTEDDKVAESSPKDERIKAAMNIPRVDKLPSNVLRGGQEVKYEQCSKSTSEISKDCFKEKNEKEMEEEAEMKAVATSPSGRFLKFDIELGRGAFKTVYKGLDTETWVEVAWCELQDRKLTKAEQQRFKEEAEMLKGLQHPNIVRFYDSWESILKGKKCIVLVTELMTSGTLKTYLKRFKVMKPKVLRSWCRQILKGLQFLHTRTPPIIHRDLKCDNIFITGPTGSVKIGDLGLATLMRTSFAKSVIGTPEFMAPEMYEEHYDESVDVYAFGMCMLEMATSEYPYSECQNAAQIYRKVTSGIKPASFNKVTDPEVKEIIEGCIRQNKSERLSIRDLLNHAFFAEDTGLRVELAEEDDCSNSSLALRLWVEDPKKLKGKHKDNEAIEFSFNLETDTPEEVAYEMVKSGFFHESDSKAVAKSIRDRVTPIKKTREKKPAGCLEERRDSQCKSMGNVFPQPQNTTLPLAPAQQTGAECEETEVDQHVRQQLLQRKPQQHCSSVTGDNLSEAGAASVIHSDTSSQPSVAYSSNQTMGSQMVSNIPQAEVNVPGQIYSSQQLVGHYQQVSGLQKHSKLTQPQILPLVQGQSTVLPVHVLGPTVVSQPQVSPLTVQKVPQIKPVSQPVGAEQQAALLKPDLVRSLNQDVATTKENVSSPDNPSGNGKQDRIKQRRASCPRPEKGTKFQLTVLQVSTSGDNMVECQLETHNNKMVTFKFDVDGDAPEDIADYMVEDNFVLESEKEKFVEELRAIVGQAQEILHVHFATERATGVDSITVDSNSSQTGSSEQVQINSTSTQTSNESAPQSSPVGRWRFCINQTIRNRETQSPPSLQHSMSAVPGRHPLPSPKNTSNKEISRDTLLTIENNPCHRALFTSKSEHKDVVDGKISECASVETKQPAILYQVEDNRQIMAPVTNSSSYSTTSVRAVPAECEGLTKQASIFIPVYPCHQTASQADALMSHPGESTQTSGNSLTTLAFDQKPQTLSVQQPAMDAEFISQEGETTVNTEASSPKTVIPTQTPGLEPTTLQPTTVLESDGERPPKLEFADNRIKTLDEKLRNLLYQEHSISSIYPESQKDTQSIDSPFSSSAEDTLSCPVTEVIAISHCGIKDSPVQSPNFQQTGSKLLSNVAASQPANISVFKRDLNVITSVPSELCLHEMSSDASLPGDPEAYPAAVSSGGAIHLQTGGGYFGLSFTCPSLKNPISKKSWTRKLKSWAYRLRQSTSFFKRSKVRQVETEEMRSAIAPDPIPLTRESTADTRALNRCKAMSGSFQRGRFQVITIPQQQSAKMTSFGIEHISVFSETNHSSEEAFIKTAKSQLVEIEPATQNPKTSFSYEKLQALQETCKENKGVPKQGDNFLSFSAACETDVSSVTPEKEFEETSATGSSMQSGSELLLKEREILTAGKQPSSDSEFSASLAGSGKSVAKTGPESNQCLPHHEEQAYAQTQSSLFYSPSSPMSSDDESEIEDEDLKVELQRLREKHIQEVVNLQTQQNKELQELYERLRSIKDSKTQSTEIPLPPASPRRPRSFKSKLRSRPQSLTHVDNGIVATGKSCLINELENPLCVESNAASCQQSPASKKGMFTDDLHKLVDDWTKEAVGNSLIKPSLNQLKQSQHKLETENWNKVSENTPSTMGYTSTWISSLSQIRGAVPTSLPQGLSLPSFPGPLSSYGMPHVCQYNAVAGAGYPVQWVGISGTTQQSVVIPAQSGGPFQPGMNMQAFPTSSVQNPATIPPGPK

Sequence: HRRIKAWLKKIKALARQLGVAA [MMI-0500]
- % activity (PAK5(h)): 125%
- % activity (Flt1(h)): 27%
- % activity (Mnk2(h)): 6%
- % activity (EphB2(h)): 70%
- % activity (SGK(h)): 2%
- % activity (MEK1(h)): 21%
- % activity (Rsk2(h)): 14%
- % activity (NEK3(h)): 20%
- % activity (eEF-2K(h)): 43%
- % activity (PKCα(h)): 3%
- % activity (EGFR(L858R)(h)): 26%
- % activity (WNK3(h)): 9%

Sequence: YARAAARQARAKALNRQLGVA [MMI-0200]
- % activity (PAK5(h)): 100%
- % activity (Flt1(h)): 96%
- % activity (EphB2(h)): 128%
- % activity (Rsk2(h)): 101%
- % activity (NEK3(h)): 100%
- % activity (TAK1(h)): 124%
- % activity (PKCα(h)): 100%
- % activity (EGFR(L858R)(h)): 120%
- % activity (WNK3(h)): 97%

Sequence: KAFAKLAARLYRKALARQLGVAA [MMI-0400]
- % activity (Flt1(h)): 48%
- % activity (Mnk2(h)): 86%
- % activity (EphB2(h)): 22%
- % activity (SGK(h)): 54%
- % activity (MEK1(h)): 77%
- % activity (Rsk2(h)): 38%
- % activity (NEK3(h)): 85%
- % activity (TAK1(h)): 177%
- % activity (eEF-2K(h)): 43%
- % activity (PKCα(h)): 86%
- % activity (EGFR(L858R)(h)): 52%
- % activity (WNK3(h)): 74%

Sequence: FAKLAARLYRKALARQLGVAA [MMI-0300]
- % activity (PAK5(h)): 110%
- % activity (Flt1(h)): 69%
- % activity (Mnk2(h)): 89%
- % activity (EphB2(h)): 18%
- % activity (SGK(h)): 48%
- % activity (MEK1(h)): 77%
- % activity (Rsk2(h)): 51%
- % activity (NEK3(h)): 92%
- % activity (TAK1(h)): 122%
- % activity (eEF-2K(h)): 91%
- % activity (PKCα(h)): 89%
- % activity (WNK3(h)): 77%
